Data on nine molecules can be found in US20230167182A1 (BIOSION, published 2023).

Where a chain is given by its changes, count along the chain named. Read-outs that look alike come from different tables or passages of the source.

Assay [1] addresses T1, human IL6R expressed on cell surface (human, UniProt P08887 20-468).
T1 construct: whole, on cells; also called cell surface human IL6R; U266 cells expressing human IL6R
T1 sequence (looked up): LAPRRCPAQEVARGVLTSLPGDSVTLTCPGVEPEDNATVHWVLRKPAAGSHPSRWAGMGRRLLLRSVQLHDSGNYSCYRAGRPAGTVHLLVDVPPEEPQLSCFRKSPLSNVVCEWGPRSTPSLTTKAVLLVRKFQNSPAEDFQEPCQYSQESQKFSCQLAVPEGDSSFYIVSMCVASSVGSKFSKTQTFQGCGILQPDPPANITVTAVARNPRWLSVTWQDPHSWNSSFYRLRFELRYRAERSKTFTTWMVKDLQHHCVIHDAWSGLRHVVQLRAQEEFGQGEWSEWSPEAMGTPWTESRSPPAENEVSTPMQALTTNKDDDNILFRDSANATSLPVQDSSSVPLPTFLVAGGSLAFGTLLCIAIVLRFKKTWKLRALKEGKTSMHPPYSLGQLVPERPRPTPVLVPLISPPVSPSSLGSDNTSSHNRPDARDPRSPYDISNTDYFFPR
In words: cell-based binding FACS on U266 cells. The procedure:
(§1) The binding activities of the mouse anti-IL6R antibodies to IL6R expressed on cell surface were tested by flow cytometry (FACS). Briefly, human myeloma cells U266 (ATCC® TIB-196™) were harvested from cell culture flasks, washed twice and resuspended in phosphate buffered saline (PBS) containing 2% v/v Fetal Bovine Serum (FACS buffer). 2×10⁵ U266 cells per well were incubated in 96 well-plates with 100 μl of the anti-IL6R antibodies or controls at various concentrations (starting at 40 nM with a 3-fold serial dilution in FACS buffer) for 40 minutes on ice. Cells were washed twice with FACS buffer, and added with 100 μL/well R-Phycoerythrin AffiniPure F(ab′)₂ Fragment Goat Anti-Mouse IgG (H+L) (1:1000 dilution in FACS buffer, Jackson ImmunoResearch Laboratories, Inc., Cat #115-116-146). Following an incubation of 40 minutes at 4° C. in dark, cells were washed three times and resuspended in FACS buffer. Fluorescence was measured using a Becton Dickinson FACS Canto II-HTS equipment. Data was analyzed using Graphpad Prism software and EC₅₀ values were reported.

Assay [2] deals with T1, human IL6R expressed on cell surface. In words: cell-based binding FACS on U266 cells. The procedure:
as §1
For the cell-based binding FACS, R-Phycoerythrin AffiniPure Goat Anti-human IgG Fcγ fragment specific (Jackson ImmunoResearch Laboratories, Inc., Cat #109-115-098) was used instead of R-Phycoerythrin AffiniPure F(ab′)₂ Fragment Goat Anti-Mouse IgG (H+L), 1:1000 dilution in FACS buffer, 100 μl/well.
This is another data set of the same source.

The target of assay [3] is T2, human IL6R-Fc protein (human, biotin-labeled in the ELISAs (sites not given)).
T2 construct: In house made; also called biotin-labeled human IL6R-Fc protein
In words: ligand blocking ELISA: antibody pre-incubated with biotin-labeled human IL6R-Fc, added to plate-coated human IL6 (blocked ligand: human IL6). The procedure: The next day, anti-IL6R antibodies or controls were diluted with biotin labeled human IL6R-Fc protein (prepared in house, SEQ ID NO: 43, 39.5 ng/ml in 2.5% w/v non-fatty milk in PBST), starting at 100 nM with a 4-fold serial dilution, and incubated at room temperature for 40 minutes. […] Plates were washed for 4 times using wash buffer, and added and incubated with 100 μl/well of streptavidin conjugated HRP (1:10000 dilution in PBST buffer, Jackson ImmunoResearch Laboratories, Inc., Cat #016-030-084) for 40 minutes at 37° C. Plates were washed again using wash buffer. Finally, TMB was added and the reaction was stopped using 1M H₂SO₄. The absorbance was read on a microplate reader using dual wavelength mode with 450 nm for TMB and 630 nm as the reference wavelength, and then the OD (450-630) values were plotted against antibody concentration. Data was analyzed using Graphpad Prism software and IC₅₀ values were reported.
(In general: An ELISA detects its analyte on a solid surface through an enzyme-linked reagent.)

The target in assay [4] is T2, human IL6R-Fc protein. As to the kind of experiment: benchmark blocking ELISA: antibody pre-incubated with biotin-labeled human IL6R-Fc, added to plate-coated Tocilizumab (competitor: Tocilizumab). The procedure:
ELISA plates were washed once with wash buffer (PBS+0.05% v/v Tween-20, PBST) and then blocked with 200 μl/well blocking buffer (5% w/v non-fatty milk in PBST) overnight at 4° C.
The next day, the anti-IL6R antibodies of the disclosure or controls were diluted with biotin labeled human IL6R-Fc protein (SEQ ID NO: 43, 13.6 ng/ml in 2.5% w/v non-fatty milk in PBST), starting at 100 nM with a 5-fold serial dilution, and incubated at room temperature for 40 minutes. […] After incubation at 37° C. for 40 minutes, plates were washed 4 times using wash buffer. Then streptavidin conjugated HRP was added, and the plates were incubated for 40 minutes at 37° C. The plates were finally washed using wash buffer, and added with TMB. The reaction was stopped using 1M […], and the absorbance was read on a microplate reader using dual wavelength mode with 450 nm for TMB and 630 nm as the reference wavelength. The OD (450-630) values were plotted against antibody concentration. Data was analyzed using Graphpad Prism software and IC₅₀ values were reported.

B1: mouse anti-IL6R monoclonal antibody 1H9 (antibody, V domains shown)
VH: QVQLQQPGAELVKPGASVKLSCKASGYTFTSYWMHWVKLRPGQGLEWIGEINPTNGRTNYYEKFKNRATLTADKSSSTAYMQLSSLTFEDSAVYFCAKFHYSRWYFDVWGTGTTVTVSS
VL: DIVMTQSQKFMSTSVGDRVSITCKASQNVGTAVVWYQQKPGQSPKLLINPASNRYTGVPDRFTGSGSGTDFTLTISNMQSEDLADYFCQQYSSYPLTFGAGTKLELK
notes: Mouse hybridoma mAb
As a reminder, the EC50 is the concentration giving half of the maximal effect. Lower therefore signals higher potency in that assay. B1: a half-maximal response in assay [1] (EC50) required 0.391 nM.

B2: Chimeric 1H7 (antibody, human IgG1, kappa, V domains shown)
VH: QVQLQQPGTELVKPGASVKLSCKASGYTFTNYWMHWVKQRPGQGLDWIGEINPTNGRTNYNENFKSKATLTVDKSSSTAYMQLSSLTSEDSAVYYCARLNTHYVFDSWGQGTTLTLSS
VL: EIVLTQSPTTLAASPGEKITFTCSVSSSISSNYLHWYQQKPGFSPKLLISRTSTLASGVPARFSGSGSGTSYSLTIGTMEAEDVATYYCQQGSGIPFTFGSGTKLELKR
notes: Mouse variable regions on human IgG1 / human kappa constant regions; also called chimeric antibody 1H7
In the case of B2, in assay [2], the EC50 was 0.298 nM.

B3: humanized antibody hu1H7-V5 (antibody, human IgG1, kappa, V domains shown)
VH: QVQLVQSGAEVKKPGASVKVSCKASGYTFTNYWMHWVRQAPGQGLEWIGEINPTNGRTNYNENFKSRVTLTVDTSTSTVYMELSSLRSEDTAVYYCARLNTHYVFDSWGQGTLVTVSS
VL: EIVLTQSPGTLSLSPGERATLSCSVSSSISSNYLHWYQQKPGLSPRLLISRTSTLASGIPARFSGSGSGTEYTLTISRMQSEDFAVYYCQQGSGIPFTFGQGTKLEIKR
notes: Human IgG1 / kappa
As to B3, the response in assay [2] was half-maximal at 0.417 nM (EC50).

B4: mouse anti-IL6R monoclonal antibody 1F7 (antibody, V domains shown)
VH: QVQLQQPGAELVKPGASVKLSCKASDYTFTSYWMHWVKQRPGQGLEWIGEINPSNGRTNYNEKFKNKATLTVDKSSSTAYVQLYSLTSEDSAVYYCARLSIHYVFDYWGQGTTLTVSS
VL: ELVLTQSPTTMAASPGEKITFTCSASSSISSNYLHWYQQKPGFSPKLLISGTSNLASGVPPRFSGSGSGTSYSLTIVTMEAEDVATYYCQQGSGIPFTFGSGTKLEIK
notes: Mouse hybridoma mAb
B4 had an EC50 in assay [1] of 0.304 nM.

B5: mouse anti-IL6R monoclonal antibody 1D4 (antibody, V domains shown)
VH: B2 VH with T9A, N31S, Q39V, D46E, N63D, D73N, K74S, S107Y, L116V
VL: B4 VL with L2I, T10I, M11L, A25V, S50Y, G51R, P61A, V77G
notes: Mouse hybridoma mAb
B5: the EC50 in assay [1] worked out at 0.274 nM.

B6: mouse anti-IL6R monoclonal antibody 1H7 (antibody, V domains shown)
VH: B2 VH
VL: B4 VL with L2I, M11L, A25V, G51R, N54T, P61A, V77G, I107L
notes: Mouse hybridoma mAb
For the molecule B6, the EC50 in assay [2] was 0.301 nM; in assay [1] it was 0.246 nM.

B7: mouse anti-IL6R monoclonal antibody 3C2 (antibody, V domains shown)
VH: B2 VH with N31T, M34I, D46E, T54S, N63H, Y80S, E89A, L116V
VL: B4 VL with L2I, F21I, S50Y, G51R, P61T, R62H, V77G
notes: Mouse hybridoma mAb
In general, IC50 refers to the concentration needed to halve the response being measured. Regarding B7, the IC50 in the assay with human IL6R-Fc protein [3] turned out to be 0.704 nM; in the assay with human IL6R-Fc protein [4] it was 0.708 nM.

B8: mouse anti-IL6R monoclonal antibody 1G1 (antibody, V domains shown)
VH: B2 VH with T9A, N31S, Q39V, D46E, N63D, D73E, K74S, L83F, S107Y, L116V
VL: B4 VL with L2I, T10I, M11L, A25V, S50Y, G51R, P61A, V77G
notes: Mouse hybridoma mAb
B8: the IC50 is roughly 1.44 nM in the assay with human IL6R-Fc protein [3] and 0.481 nM with human IL6R-Fc protein [4].

B9: Tocilizumab (antibody, human IgG1, kappa, V domains shown)
VH: QVQLQESGPGLVRPSQTLSLTCTVSGYSITSDHAWSWVRQPPGRGLEWIGYISYSGITTYNPSLKSRVTMLRDTSKNQFSLRLSSVTAADTAVYYCARSLARTTAMDYWGQGSLVTVSS
VL: DIQMTQSPSSLSASVGDRVTITCRASQDISSYLNWYQQKPGKAPKLLIYYTSRLHSGVPSRFSGSGSGTDFTFTISSLQPEDIATYYCQQGNTLPYTFGQGTKVEIKR
notes: In house made; also called benchmark; Actemra
B9: the IC50 turned out to be 2.51 nM in the assay with human IL6R-Fc protein [3] and 2.23 nM with human IL6R-Fc protein [4]. For the same molecule, the figures for the EC50 in assay [2] and in assay [1] were 1.76 nM and 1.64 nM, respectively.
